The labels stand for the following.
B2: trypsin (protein)
chain: SSGTSYPDVLKCLKAPILSDSSCKSAYPGQITSNMFCAGYLEGGKDSCQGDSGGPVVCSGKLQGIVSWGSGCAQKNKPGVYTKVCNYVSWIKQTIASN

The assay “trypsin” deals with B2. Kind of assay: ITC. (ITC needs no label: the signal is the heat of the interaction.)
Another assay has as its target BPTI (Bos taurus, UniProt P00974). Description: ITC.

B1: HWTX-XI (protein)
chain: IDTCRLPSDRGRCKASFERWYFNGRTCAKFIYGGCGGNGNKFPTQEACMKRCAKA
As a reminder, the Kd is the constant that tells how readily two partners part at equilibrium. A high value points to a looser complex. For B1, in the assay with trypsin, the Kd came to 0.23 nM.

Take B2: the dissociation constant (Kd) in the assay with BPTI came to 6.57 nM.
